# Laboratory results reported in US10064926B2, “Peptides and combination of peptides for use in immunotherapy against hepatocellular carcinoma (HCC) and other cancers” (Immatics biotechnologies GmbH, priority 2014, dated 2018).
# Target: HLA-A*02 (Homo sapiens, UniProt P04439, D140Y/D185E/D98H/E176V/E277Q/G131W/G231S/I119V/I121R/I166T/I218V/N151K/N90K/P208A/P217A/Q86G/Q94H/R138H/R169H)
# Assay: UV-ligand exchange / peptide binding to MHC class I (beta2m ELISA)
# Details: Table 10A; peptide exchange yield, UV-ligand exchange, β2m ELISA
# Description: Candidate peptides for T cell based therapies according to the present invention were further tested for their MHC binding capacity (affinity). The individual peptide-MHC complexes were produced by UV-ligand exchange, where a UV-sensitive peptide is cleaved upon UV-irradiation, and exchanged with the peptide of interest as analyzed. Only peptide candidates that can effectively bind and stabilize the peptide-receptive MHC molecules prevent dissociation of the MHC complexes. To determine the yield of the exchange reaction, an ELISA was performed based on the detection of the light chain (β2m) of stabilized MHC complexes. The assay was performed as generally described in Rodenko et al. (Rodenko B, Toebes M, Hadrup S R, van Esch W J, Molenaar A M, Schumacher T N, Ovaa H. Generation of peptide-MHC class I complexes through UV-mediated ligand exchange. Nat Protoc. 2006; 1(3):1120-32).
# 96 well MAXISorp plates (NUNC) were coated over night with 2 ug/ml streptavidin in PBS at room temperature, washed 4× and blocked for 1 h at 37° C. in 2% BSA containing blocking buffer. Refolded HLA-A*0201/MLA-001 monomers served as standards, covering the range of 15-500 ng/ml. Peptide-MHC monomers of the UV-exchange reaction were diluted 100 fold in blocking buffer. Samples were incubated for 1 h at 37° C., washed four times, incubated with 2 ug/ml HRP conjugated anti-β2m for 1 h at 37° C., washed again and detected with TMB solution that is stopped with […]. Absorption was measured at 450 nm. Candidate peptides that show a high exchange yield (preferably higher than 50%, most preferred higher than 75%) are generally preferred for a generation and production of antibodies or fragments thereof, and/or T cell receptors or fragments thereof, as they show sufficient avidity to the MHC molecules and prevent dissociation of the MHC complexes.
row,Substance,Peptide exchange (MHC class I binding score)
1,5 (ALVEQGFTV; listed as Homo sapiens) [compound 5],++++ (>=75% = ++++)
2,8 (KLLEEATISV; listed as Homo sapiens) [compound 8],+++ (50%-75% = +++)
3,13 (GLIDTETAMKAV; listed as Homo sapiens) [compound 13],++++ (>=75% = ++++)

# Same assay, conditions: Table 10B; peptide exchange yield; HLA-A*02 peptides
row,Substance,Peptide exchange (MHC class I binding score)
1,3 (ILDDNMQKL; listed as Homo sapiens) [compound 3],“+++” (≥50 = +++)
2,5 (ALVEQGFTV; listed as Homo sapiens) [compound 5],“++++” (≥75% = ++++)
3,8 (KLLEEATISV; listed as Homo sapiens) [compound 8],“+++” (≥50 = +++)
4,9 (ALANQKLYSV; listed as Homo sapiens) [compound 9],“+++” (≥50 = +++)
5,13 (GLIDTETAMKAV; listed as Homo sapiens) [compound 13],“++++” (≥75% = ++++)
6,17 (RVASPTSGV; listed as Homo sapiens) [compound 17],“+++” (≥50 = +++)
7,18 (ALYGKTEVV; listed as Homo sapiens) [compound 18],“+++” (≥50 = +++)
8,19 (FLEETKATV; listed as Homo sapiens) [compound 19],“+++” (≥50 = +++)
9,20 (KLSNVLQQV; listed as Homo sapiens) [compound 20],“++++” (≥75% = ++++)
10,21 (QLIEVSSPITL; listed as Homo sapiens) [compound 21],“++++” (≥75% = ++++)
11,22 (RIAGIRGIQGV; listed as Homo sapiens) [compound 22],“++++” (≥75% = ++++)
12,23 (RLYDPASGTISL; listed as Homo sapiens) [compound 23],“+++” (≥50 = +++)
13,24 (SLAEEKLQASV; listed as Homo sapiens) [compound 24],“+++” (≥50 = +++)
14,25 (SLDGKAALTEL; listed as Homo sapiens) [compound 25],“+++” (≥50 = +++)
15,26 (SLLHTIYEV; listed as Homo sapiens) [compound 26],“+++” (≥50 = +++)
16,27 (TLPDFRLPEI; listed as Homo sapiens) [compound 27],“++++” (≥75% = ++++)
17,28 (TLQDHLNSL; listed as Homo sapiens) [compound 28],“+++” (≥50 = +++)
18,29 (YIQDEINTI; listed as Homo sapiens) [compound 29],“+++” (≥50 = +++)
19,30 (YLGEGPRMV; listed as Homo sapiens) [compound 30],“+++” (≥50 = +++)
20,31 (YQMDIQQEL; listed as Homo sapiens) [compound 31],“+++” (≥50 = +++)
21,32 (ALNAVRLLV; listed as Homo sapiens) [compound 32],“++++” (≥75% = ++++)
22,33 (LLHGHIVEL; listed as Homo sapiens) [compound 33],“+++” (≥50 = +++)
23,34 (SLAEGTATV; listed as Homo sapiens) [compound 34],“+++” (≥50 = +++)
24,35 (SLQESILAQV; listed as Homo sapiens) [compound 35],“+++” (≥50 = +++)
25,36 (ILNVDGLIGV; listed as Homo sapiens) [compound 36],“+++” (≥50 = +++)
26,37 (LLLPLLPPLSP; listed as Homo sapiens) [compound 37],“+++” (≥50 = +++)
27,38 (ALADVVHEA; listed as Homo sapiens) [compound 38],“+++” (≥50 = +++)

row,Substance,Peptide exchange (MHC class I binding score)
1,39 (ALDPKANFST; listed as Homo sapiens) [compound 39],“+++” (≥50 = +++)
2,40 (ALLAEGITWV; listed as Homo sapiens) [compound 40],“+++” (≥50 = +++)
3,41 (ALLELDEPLVL; listed as Homo sapiens) [compound 41],“++++” (≥75% = ++++)
4,42 (ALLGGNVRMML; listed as Homo sapiens) [compound 42],“+++” (≥50 = +++)
5,44 (ALQDAIRQL; listed as Homo sapiens) [compound 44],“++++” (≥75% = ++++)
6,45 (ALQDQLVLV; listed as Homo sapiens) [compound 45],“++++” (≥75% = ++++)
7,46 (AMAEMKVVL; listed as Homo sapiens) [compound 46],“+++” (≥50 = +++)
8,47 (FLDTPIAKV; listed as Homo sapiens) [compound 47],“++” (≥20% = ++)
9,48 (FLLEQPEIQV; listed as Homo sapiens) [compound 48],“+++” (≥50 = +++)
10,49 (FLYPEKDEPT; listed as Homo sapiens) [compound 49],“++” (≥20% = ++)
11,50 (FTIPKLYQL; listed as Homo sapiens) [compound 50],“++” (≥20% = ++)
12,51 (GLAEELVRA; listed as Homo sapiens) [compound 51],“++” (≥20% = ++)
13,52 (GLFNAELLEA; listed as Homo sapiens) [compound 52],“+++” (≥50 = +++)
14,53 (GLIHLEGDTV; listed as Homo sapiens) [compound 53],“+++” (≥50 = +++)
15,54 (GLLDPNVKSIFV; listed as Homo sapiens) [compound 54],“+++” (≥50 = +++)
16,55 (GLYGRTIEL; listed as Homo sapiens) [compound 55],“+++” (≥50 = +++)
17,56 (GVLPGLVGV; listed as Homo sapiens) [compound 56],“+++” (≥50 = +++)
18,57 (HLTEAIQYV; listed as Homo sapiens) [compound 57],“+++” (≥50 = +++)
19,58 (ILADLNLSV; listed as Homo sapiens) [compound 58],“++++” (≥75% = ++++)
20,59 (ILADTFIGV; listed as Homo sapiens) [compound 59],“+++” (≥50 = +++)
21,60 (ILSPLSVAL; listed as Homo sapiens) [compound 60],“++++” (≥75% = ++++)
22,61 (KIADFELPTI; listed as Homo sapiens) [compound 61],“++++” (≥75% = ++++)
23,62 (KIAGTNAEV; listed as Homo sapiens) [compound 62],“++” (≥20% = ++)
24,63 (KIDEKNFVV; listed as Homo sapiens) [compound 63],“+++” (≥50 = +++)
25,64 (KILEETLYV; listed as Homo sapiens) [compound 64],“+++” (≥50 = +++)
26,65 (KLFSGDELLEV; listed as Homo sapiens) [compound 65],“+++” (≥50 = +++)
